The source of these data is the DeepSol protein solubility set.

This data set can be described thus: soluble on expression in E. coli; label from the status in PepcDB or PDB records.
Turning to “MFCSFFHEKKKNILRLNIRCQRLREHDNTAKIELFKSMRRRRSSTKASRKTTMGGAAELEDEWIPSETMSGAGWKARGDRKPKDKRVPFNRPTPYQIYEALPFVRRYFMYWMKHTFDKEKLFINTFQPLKHKPYYGVPCGGIGCGAIGRDFRGGFCKFSLRPGLVEHKVDVVAADQFILSVRENDRCIYQKVLSAADVQRPSGQLSTWDFKFPKKNVHYRGLFPRSWTTFRVPELELTVVIRQVSPVLPHNYEDTTYPVCLFLIDVENGGSASREYEISVAFTFRNGTGNRRWEREAECSGVKFETEEEGLKPTTTAQEKISGVSLYHTISSMPCTYGLATTHREHTTTTVCERFDPSRNGAALWNHLKQTGDVPSCEEECLINAREMAVAVCNRFTLPPNSTKTHDYALSWDMPKVHFGSVARSYHRRYTRFFEASEAGSAADSLCVRALRLKDKWESEIEAWQSPILNHKKLPDWYKSAIFNELYFITDGGTVWFEFDENWAEHETHLSHYTKDKMKEIGRFGYLESWEYRMVNTYDVHFYASFALAELWPELEITIQSEFTDQVYHSIEKPTRFHMEGDWANVKTASRVPHDLGNPADEPWIATNAYVMHDTGKWKDLNMKYVLTSWRDYVVLSNEHEDFLFHTWPAVRMIMLEALENWDQDGDGMIENFGKADQTYDAWQMEGVSAYCGSLWLASLRVAIEMAGLMKDDETQQLFRNTLEKAKKVFIDTLWTGTYFRFCERSRSRETVMADQLCGYWFLQSVSPELADELLPNHMVRSALDTIYRLNVCKFGNGRMGAVNGMKPSGVVDREYIQADEMWTGVTYAVASLLIQQGEVEKAFHTASGSYLTCFEETGLQYQTPEALYESKFYRAIGYMRPLSIWAMQWSLKKHCGMNTSEEKLPNLVKNEKVVPESEAAIQVQKQRILGDTSEDGSSLGYVSDYHDERSIPKIATLR”, the “soluble on expression in E. coli” value is reported as “not soluble”.

On to “MFDISHMGRLLIEDPEKKLQYFTTNNLDKLSVGKVQYNLLPNEKGGIKDDVTVYMLSEIEFFLCVNAANRQKVINWLSPHLKLRDLSGELVQIALQGPKSEEIISKFYPVSDLKYYRFKVFDKTIISRTGYTGEDGFEIYVSPEEGKELFLELVKLAKPCGLGARDVLRIEAGLPLYGNELSEEITPIEVNLEKFVDFSKEFIGKEAMLKKKVKKKLFGLELTEKGIPRKGYRVFKGDREIGWISSGTYSPTLNKGIALCFVDIEERKEGNEVEIEVRGRRVRGVLRKYPFVRTPAGRYQKLEHHHHHH”, for which the “soluble on expression in E. coli” value was “not soluble”.

On to “MFDLEKVQTLNELEMLVYHYVLEHLHQIPQQTIRQLATSCHVSTSTILRFCNKMGYAGFSELKYAVKEEAKQTQTFENFYDATVHVDAFLKKLNQETYYEMLRPAIQMIVQARHVAFTGIGTSGILGSYGSRYFANLNINSYSIADPFTPIPKRGFENTLALILSVSGETNEMIKQMTDFKTAGAKVLSITNNQHSTIARLADYNISYYMPDERSPFADKSVNTTTQIPVIALIELLAHQASQLLKELDETPS”, for which the “soluble on expression in E. coli” value is recorded as “not soluble”. The entry for “MFDRLKNGEKIAPIVKEVESQITEVHKRADEVIESNQFRVLESFGKHKISDSHFIPTTGYGYDDIGRDTLEKVYADVFGAEAGLVRPQIISGTHAISTALFGILRPGDELLYITGKPYDTLEEIVGVRGKGVGSFKEYNIGYNAVPLTEGGLVDFEAVAAAIHSNTKMIGIQRSKGYATRPSFTISQIKEMIAFVKEIKPDVVVFVDNCYGEFIEEQEPCHVGADLMAGSLIKNPGGGIVKTGGYIVGKEQYVEACAYRLTSPGIGAEAGASLYSLQEMYQGFFLAPHVAGQALKGAIFTAAFLEKLGMNTSPAWNAPRTDLIQSVQFDDKDRMIAFCQAIQYASPINSHFTPYANYMPGYEDDVIMAAGTFIQGASIELSADGPIRPPYVAYVQGGLTYSHVKIAICSAIDELIEKNLLTISLEHHHHHH” is “soluble”; for “MFDRLLSQFGRKRVASESVATQQQLTDRTNVYTVKPQDPLLDKKQKMTPVQKVCLKCLAGESGHITHVLSSLSN” it is “not soluble”; for “MFEARLTDVRANKLAQAWRLAYEQADGKRRRAMLGGLAQVGAGMQGDGAQGTRLFKRFNALPDGLRFLVALRADMLRWRKQVAGLQALDKELEALLSAWFDVGLLELRPLTWDSPASLLEKLILYEAVHEIRSWDDLRHRVAGDRRCYAYFHPQMPDVPLIFVEVAFSAQMADNVQALLDTSAPPQDLDKARWAIFYSISNTQPGLRGISFGNFLLKRVIDRLLQELPKLKFFATLSPIPGFADWLSRLDAQEVEQAVRDKARTRSGAPDGARWVARLARAATGKPSEVVQRAGLRLAARYLQAMRAGQPLDPVARFHLGNGARIERLNWAADTSAKGLAQSCGMMVNYLYELGDLDGNLARLNEGKPQVSRGIARLGAAALEHHHHHH” it is “soluble”. The entry for “MFEKEKEGLIEVQNVYEIAPEDGTIIGMATEEEMEIAAELELQYYAHSRLLEANIQLDGSSYKELLQEFQEYERKSMSFWRAIHKRLAVPWAWVLRIDVANGPIYVSNGSSYYEEIDDEEDYE” is “not soluble”; for “MFEKVRKIIAEQLGIEEDEITMESSFIDDLGADSLDIVELIMALEEEFDLEIPDSEAEKITTVGDVVEYIKNNS” it is “not soluble”; for “MFEPMMEMSDDAVIKVVGVGGGGGNAVEHMVRESIEGVEFMSINTDAQALRKTSVGTVIQIGGNITKGLGAGANPQVGRDAALEDKERIKEFLTGADMVFIAAGMGGGTGTGAAPVIAEVAKELGILTVAVVTKPFSFEGKKRLAFAEQGIEELSKHVDSLITIPNEKLLKVLGRGITLLEAFASANNVLKNAVQGIAELITRPGMINVDFADVRTVMSEMGHAMMGSGVARGEDRAEEAAEMAISSPLLEDIDLAGARGVLVNITAGLDMRLDEFETVGNTVKAFASDNATVVIGTSLDPDMADEIRVTVVATGIGNEKKPDITLVAGGKSKVAPVSAPVTSRVEEKAAQPLHERVEVKTQPAAAPSHSSASQSVAPKPEKESGYLDIPAFLRRQAD” it is “not soluble”. The entry for “MFERLREDIQSVFHRDPAARNAFEVLTCYPGMHAIWLHRLGNALWRRDFKWLARLVSNFGRWLTGIEIHPGATIGRRFFIDHGMGIVIGETAEIGDDVTLYQGVTLGGTSWNKGKRHPTLENGVVVGAGAKVLGPFTVGAGAKIGSNAVVTKAVPAGATAVGIPGRIIVKSEDTEVEAKRKAMAEKIGFDAYGVSGDMPDPVARAIGQMLDHLQAVDERLEGMCGALTKMGSDYCAKELPALPEDDFSLEHHHHHH” is “soluble”; for “MFFKKNLTTAAICAALSVAAFSAMATDSTDTELTIIGEYTPGACTPVVTGGGIVDYGKHHNSALNPTGKSNKLVQLGRKNSTLNITCTAPTLIAVTSKDNRQSTIVALNDTSYIEKAYDTLVDMKGTKNAFGLGSAPNGQKIGAASIGIDRSNGGIHAADDTGEIPVDLIQTDHWSAATPTWKASSNGAFCSLTSCSAIERGYSVAKTGELTPVAITAVTFPLLIDAAVNDNTILGSDETIKLDGNVTISVQYL” it is “not soluble”. On to “MFFKQFYDNHLSQASYLVGCQRTGEAIIIDPVRDLSKYIEVADSEGLTITQATETHIHADFASGIRDVAKRLNANIYVSGEGEDALGYKNMPSKTQFVKHGDIIQVGNVKLEVLHTPGHTPESISFLLTDLGGGSSVPMGLFSGDFIFVGDIGRPDLLEKSVQIKGSTEISAKQMYESVQNIKNLPDYVQIWPGHGAGSPCGKALGAIPISTIGYEKINNWAFNEIDETKFIESLTSNQPAPPHHFAQMKQVNQFGMNLYQSYDVYPSLDNKRVAFDLRSKEAFHGGHTKGTINIPYNKNFINQIGWYLDFEKDIDLIGDKSTVEKAKHTLQLIGFDKVAGYRLPKSGISTQSVHSADMTGKEEHVLDVRNDEEWNNGHLDQAVNIPHGKLLNENIPFNKEDKIYVHCQSGVRSSIAVGILESKGFENVVNIREGYQDFPESLKLEHHHHHH”, for which the “soluble on expression in E. coli” value is “soluble”. Next, “MFGGDVSAASVLPSHPISGSCDGFQAEGSDHHHSTMTPFQESQRNVYQILYGHPANDDFPRPITPLQITIPEGDASPTVPVSCGVVNGKMHLNLFMCPGIHQPCIEVGNDLLSPKQFTIRGDKERQKDWKASIRVGRSSLRTHMEAMTIDFYEHMNRCSGKCQSRNYVNAPSEEVLQARKSKRTSEAGQLKYEIENEMAGKEADNDDNRKSAKKARGRPRGSVNKPRQMVKMEPQDDRFFEEFFIDAPPLQSMSSNEEPTSSNKESNECTPFNDILNCLQNDPMNFWSQMQQTGVIGHFCDDIIVSAINLKQSVMDNPVTPTTANMLTRTAFALGIPPVVVHRVQSIERNAYQQRKHDEMFNDIQSTLAEEHSVKYQPRTSSSSQESLHTAREFTEEKVEELIDVCKYDDYPESECLPGPSHIQ”: “not soluble”; “MFGNLQGKFIIATPEMDDEYFDRTVIYICEHNDNGTIGVIINTPTDLSVLELLTRMDFQMAKPRIYTQDQMVLNGGPVNQDRGFIVHSKTDHEFTHSYKVTDDITLTTSGDVLDSFGTQTAPEKFIVCLGCSTWKPHQLEQEIAQNYWLLSEANNQTLFETSYLDRWVEANEMLGISGILAPAGRALEHHHHHH”: “soluble”. Next, “MFKSQTAILPEAGPFALYTLLKVRQNHAHVLQALKALPALVEEINQNQPGAELTVSVAFSKGFWSHFEMASPPELIDFPELGEGETHAPSTDVDVLIHCHATRHDLLFYTLRKGISDIAQDIEIVDETYGFRYLDARDMTGFIDGTENPKAEKRAEVALVADGDFAGGSYVMVQRFVHNLPAWNRLNLAAQEKVIGRTKPDSVELENVPAASHVGRVDIKEEGKGLKIVRHSLPYGSVSGDHGLLFIAYCHTLHNFKTMLESMYGVTDGKTDQLLRFTKAVTGAYFFAPSQVMLQELTLKNQ”: “not soluble”. Next, “MFKSVAKCDKVEKMLLGTFNLTLDNKNRISLPAKLRSFFDSSIVINRGFENCLEIRKPADFESYFQTFNNFPNTQKDTRTLKRLIFANANLVELDSANRILIPNNLISDAKLDKEIVLIGQFDHLEVWDKVQYEQYLASSESLETVAERMKDAK”: “soluble”; “MFKVTFAFENGSEVEAFANAGDNLLEVARGANVAIDAPCSGNGACGKCRVQLKGGELDSKKTLHISDEEFEKGWRLACMSKICADVEVLVPDIASAYKSRMKVADLSSKEEIAIFEKAKNQVEETGIQLRNSLEVVELQMTEPTLDDTMPDVERLTRALRKFMNLKRIRVPYAVLRKLPDVLRASKFSVKCVVRVTPDDMFVYDIFDAKEDVIMGGLAVDIGTTTVSAVIINMATGEILAKSSSGNGQIRYGADVINRIIETTKPGGIKKLQDAVIKETINPMIHEMCRSIHLPENQIYRMCVASNTTMNHLFAGINADYLRTEPYIPAFFKTNSLFASDVGIEINGDAHIIMAPNIGSYVGGDITAGTLVSMIWNRPEFSLFIDLGTNGELVFGNSDFMMSCACSAGPAFEGGDISCGMRATDGAIEACTIDKETMEPTYKVVGEPGTKPVGLCGSGIIDVISELFMTGIINPKGKFVREGKRVRHDHYGMGSYVIAFEEEAGSVKDVEITEVDIDNFIRAKGAIFSAIRTMLSSLDFDVSMIDDVYVAGGIGSGINMQNAVNIGMFPDVPLEKFHYIGNSSLTGAYLMLLSTQAEKKTYELASNMTYMELSTVPTYMDEFVGACFIPHTDASMFPNVHQRLEHHHHHH”: “not soluble”; “MFLKKETFTRGDASVALFELSGLQRIEYLEFIQKRTAKYDTDMDGTTEADKRVAYMQMALEINAWLVSRSLLNGDSSQDADTLYQSVQAKWSYEALDAGAESVLMLSGLSADKKDNASDSGNESEDMTPEKS”: “not soluble”.
